Assay results published in US10869932B2, “Compositions and methods for modifying the surface of cells and methods of use” (UNIVERSITY OF UTAH RESEARCH FOUNDATION, priority 2014, dated 2020).

Molecular target: SDF-1 (Homo sapiens, UniProt P48061)
Assay: SDF-1 binding to rCXCR4 on the surface of MSCs
Format: cell-based
Conditions: FITC-SDF-1, 30 minutes at 4° C.
Method: FITC-labeled rSDF-1 (FITC-SDF-1) and rhodamine-labeled rCXCR4 (Rho-CXCR4) were prepared according to the manufacturer's protocol. MSCs were then modified with DMPE-PEG-Rho-CXCR4 or DMPE-PEG-CXCR4. Modified MSCs and non-modified MSCs were incubated with FITC-SDF-1 for 30 minutes of incubation at 4° C. under gentle shaking. […] In order to avoid unknown effects of rhodamine on the interaction between SDF-1 and CXCR4, FITC-SDF-1 was added to MSCs modified with DMPE-PEG-CXCR4. […] Weak SDF-1 intensity was detected on the surface of the non-modified MSCs (see FIG. 12; Control+FITC-SDF-1).
Additional evidence of SDF-1 binding to CXCR4 with CXCR4 detection on the surface of the MSC was achieved by the same methods as employed in the previous experiment. MSCs were modified with DMPE-PEG-CXCR4 and the modified MSCs were incubated with FITC-SDF-1.

SDF-1, sequence (P48061 22-93, species assumed): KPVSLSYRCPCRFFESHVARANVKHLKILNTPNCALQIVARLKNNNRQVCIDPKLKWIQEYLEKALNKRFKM

DMPE-PEG-Rho-CXCR4: DMPE-PEG conjugated with rhodamine-labeled rCXCR4
SDF-1 binding on the surface of modified MSCs (confocal): FITC-SDF-1 was co-localized with CXCR4
